Assay results reported in PMC5356265, “Increased enzymatic hydrolysis of sugarcane bagasse by a novel glucose- and xylose-stimulated β-glucosidase from Anoxybacillus flavithermus subsp. yunnanensis E13^T” (BMC Biochemistry, 2017).

Tested on: T1, O=[N+]([O-])c1ccc(O[C@@H]2O[C@H](CO)[C@@H](O)[C@H](O)[C@H]2O)cc1
T1 construct: full-length GH1 enzyme, no signal peptide; gene 1347 bp (448 residues deduced), 52 kDa; pET22b in E. coli BL21 (DE3), heat treatment and Ni-NTA purified
Test: p-nitrophenol release at A410, Lineweaver-Burk
Assay type: biochemical, Anoxybacillus flavithermus subsp. yunnanensis
Details: Na2HPO4-citric acid buffer pH 7.0, 60 °C, no added sugar

BglP (Bglp) (Anoxybacillus flavithermus subsp. yunnanensis)
Km: 290 ± 10 µM
